Kd data for four molecules are collected here from article PMC4469990 (2015).

Read-outs that look alike come from different tables or passages of the source.

Assay [1] deals with Factor VIII A3C1C2 subunit A3C1C2 (Homo sapiens) (UniProt P00451). To be noted: cited from earlier work.
In assay [2] the target is Factor VIII A1/A3C1C2 dimer A1/A3C1C2 (Homo sapiens) (UniProt P00451). The following applies: cited from earlier work.
For assay [3] the target is unchanged. Put plainly: FXa generation assay. To be noted: cited from earlier work.
Assay [4] has as its target T1, Factor VIIIa A1/A3C1C2 dimer A1/A3C1C2 (Homo sapiens, UniProt P00451).
T1 chain 1: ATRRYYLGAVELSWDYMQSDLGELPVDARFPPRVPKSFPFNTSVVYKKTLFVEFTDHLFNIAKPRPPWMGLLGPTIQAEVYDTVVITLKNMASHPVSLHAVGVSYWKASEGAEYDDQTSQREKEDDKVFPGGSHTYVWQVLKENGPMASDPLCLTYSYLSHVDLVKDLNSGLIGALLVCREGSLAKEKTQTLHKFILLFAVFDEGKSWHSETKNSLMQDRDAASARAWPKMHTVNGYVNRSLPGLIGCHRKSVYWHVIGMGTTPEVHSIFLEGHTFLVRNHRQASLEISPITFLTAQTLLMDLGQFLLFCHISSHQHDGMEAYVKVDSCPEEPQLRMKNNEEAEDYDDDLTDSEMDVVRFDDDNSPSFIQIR
T1 chain 2: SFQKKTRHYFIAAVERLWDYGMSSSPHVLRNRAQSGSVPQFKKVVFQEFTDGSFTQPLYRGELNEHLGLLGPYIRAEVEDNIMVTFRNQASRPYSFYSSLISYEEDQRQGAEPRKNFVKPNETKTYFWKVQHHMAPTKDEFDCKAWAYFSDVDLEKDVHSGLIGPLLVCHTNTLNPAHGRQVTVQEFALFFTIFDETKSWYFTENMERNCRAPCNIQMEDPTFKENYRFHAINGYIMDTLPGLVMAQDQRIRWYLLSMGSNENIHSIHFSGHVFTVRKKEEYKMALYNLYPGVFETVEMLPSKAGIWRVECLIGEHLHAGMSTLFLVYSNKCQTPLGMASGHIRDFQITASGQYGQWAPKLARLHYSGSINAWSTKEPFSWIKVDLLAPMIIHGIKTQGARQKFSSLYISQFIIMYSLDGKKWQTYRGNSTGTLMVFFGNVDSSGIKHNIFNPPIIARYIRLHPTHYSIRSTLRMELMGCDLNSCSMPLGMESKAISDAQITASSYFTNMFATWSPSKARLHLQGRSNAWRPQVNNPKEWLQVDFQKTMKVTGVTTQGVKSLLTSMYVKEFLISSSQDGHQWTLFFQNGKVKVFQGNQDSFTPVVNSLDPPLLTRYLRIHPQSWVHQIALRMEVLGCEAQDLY
Nature of the assay: FVIIIa reconstitution assay.

For the molecule “Factor VIII A1 subunit A1 (from UniProt P00451)”, the Kd in assay [1] was 60 nM.
Turning to “Factor VIII A2 subunit A2 (from UniProt P00451)”, the figures for the dissociation constant Kd in assay [2] and in assay [3] were 260 nM and 30 nM, respectively.

B1: Factor VIIIa A2 subunit A2 (protein)
chain: SVAKKHPKTWVHYIAAEEEDWDYAPLVLAPDDRSYKSQYLNNGPQRIGRKYKKVRFMAYTDETFKTREAIQHESGILGPLLYGEVGDTLLIIFKNQASRPYNIYPHGITDVRPLYSRRLPKGVKHLKDFPILPGEIFKYKWTVTVEDGPTKSDPRCLTRYYSSFVNMERDLASGLIGPLLICYKESVDQRGNQIMSDKRNVILFSVFDENRSWYLTENIQRFLPNPAGVQLEDPEFQASNIMHSINGYVFDSLQLSVCLHEVAYWYILSIGAQTDFLSVFFSGYTFKHKMVYEDTLTLFPFSGETVFMSMENPGLWILGCHNSDFRNRGMTALLKVSSCDKNTGDYYEDSYEDISAYLLSKNNAIEPR
In assay [4], B1 showed a Kd of 56.3 nM.

B2: Factor VIIIa A2 subunit A2 (protein)
chain: SVAKKHPKTWVHYIAAEEEDWDYAPLVLAPDDRSYKSQYLNNGPQRIGRKYKKVRFMAYTDETFKTREAIQHESGILGPLLYGEVGDTLLIIFKNQASRPYNIYPHGITDVRPLYSRRLPKGVKHLKVFPILPGEIFKYKWTVTVEDGPTKSDPRCLTRYYSSFVNMERDLASGLIGPLLICYKESVDQRGNQIMSDKRNVILFSVFDENRSWYLTENIQRFLPNPAGVQLEDPEFQASNIMHSINGYVFDSLQLSVCLHEVAYWYILSIGAQTDFLSVFFSGYTFKHKMVYEDTLTLFPFSGETVFMSMENPGLWILGCHNSDFRNRGMTALLKVSSCDKNTGDYYEDSYEDISAYLLSKNNAIEPR
Consider B2, for which, in assay [4], the Kd is 10 nM.

One may read the Kd as the free concentration of one partner at which half of the binding sites on the other are occupied at equilibrium, for simple one-to-one binding.
